Results as given in the Human Domainome abundance scans (Beltran et al. 2025).
± gives the uncertainty stated by the source.

B1: Homeobox protein cut-like 1, residues 941 to 1008; numbered along this chain, P39880 (parent)
chain: QEVDTIELTRQVKEKLAKNGICQRIFGEKVLGLSQGSVSDMLSRPKPWSKLTQKGREPFIRMQLWLNG

Variants of: B1
Assay: abundance fitness (aPCA) (normalised: wild type 0, dead -1); higher = more abundant; growth selection in yeast, the domain comes from the species named
Conditions: Homo sapiens

| Variant | abundance fitness |
| --- | --- |
| QEVDTIELTRQVKEKLAKNGICQRIFGEKVLGLSQGSVSDMLSRPKPYSKLTQKGREPFIRMQLWLNG [W48Y] | -0.78 ± 0.12 |
| QEVDTIELTRQVKEKLAKNGICQRIFGEKVLGLSQGSVSDMLSRPKPISKLTQKGREPFIRMQLWLNG [W48I] | -1 ± 0.2 |
| QEVDTIELTRQVKEKLAKNGICQRIFGEKVLGLSQGSVSDMLSRPKPFSKLTQKGREPFIRMQLWLNG [W48F] | -0.311 ± 0.078 |
| QEVDTIELTRQVKEKLAKNGICQRIFGEKVLGLSQASVSDMLSRPKPWSKLTQKGREPFIRMQLWLNG [G36A] | 0.067 ± 0.073 |
| QEVDTIELTGQVKEKLAKNGICQRIFGEKVLGLSQGSVSDMLSRPKPWSKLTQKGREPFIRMQLWLNG [R10G] | -0.089 ± 0.047 |
| QEVDTIELTRQVKEKLAKNGICQRIFGEKVLGLSQGSVSNMLSRPKPWSKLTQKGREPFIRMQLWLNG [D40N] | -0.133 ± 0.12 |
| QEVDTIELTRQVKEKLAKNLICQRIFGEKVLGLSQGSVSDMLSRPKPWSKLTQKGREPFIRMQLWLNG [G20L] | -0.277 ± 0.053 |
| QEVDTIELTRQVKEKLAKNVICQRIFGEKVLGLSQGSVSDMLSRPKPWSKLTQKGREPFIRMQLWLNG [G20V] | -0.441 ± 0.054 |
| QEVDTIELTRQVKEKLAKNGICQRIFGEKVLGLSQGSVSDMLSRPKPWCKLTQKGREPFIRMQLWLNG [S49C] | -0.237 ± 0.067 |
| QEVDTIELTRQVKEKLAKNGICQRIFGEKVLGLSQGSVSDMLSRVKPWSKLTQKGREPFIRMQLWLNG [P45V] | -0.139 ± 0.063 |
| QEVDTIELTRQVKEKLAKNGICQRIFGEKVLGLSQGSVSDMLSRPKSWSKLTQKGREPFIRMQLWLNG [P47S] | -0.086 ± 0.066 |
| QEVDTIELTRQVKEKLAKNGICQRIFGEKVLGLSQGMVSDMLSRPKPWSKLTQKGREPFIRMQLWLNG [S37M] | -0.126 ± 0.085 |
| QEVDTIELTRQVKEKLAKNGICQRIFGEKVLGLSQGSVSDMLSRPKPWSKLTQKGRECFIRMQLWLNG [P58C] | 0.099 ± 0.14 |
| QEVDTIELTRQVKEKLAKNGICQRIFGEKVLGLSQGSVSDMLSRPKPWSKLTQKGREIFIRMQLWLNG [P58I] | 0.117 ± 0.083 |
| QEVDTIELTRQVKEKLAKNGICQRIFGEKVLGLSQGSVSDMLSRPKPWSKLTQKGRELFIRMQLWLNG [P58L] | 0.109 ± 0.044 |
| QEVDTIELTRQVKEKLAKNGICQRIFGEKVLGLSQGSVSDMLSRPKPWSKGTQKGREPFIRMQLWLNG [L51G] | -1.04 ± 0.068 |
| QEVDTIELTRQVKEKLAKNGICQRIFGEKVLGLSQGSVSDMLSRPKPWSKLTQKGREPKIRMQLWLNG [F59K] | -0.954 ± 0.11 |
| QEVDTIELTRQVKEKLAKNGICQRIFGEKVLGLSWGSVSDMLSRPKPWSKLTQKGREPFIRMQLWLNG [Q35W] | 0.064 ± 0.076 |
| QEVDTIELTRQVKEKLAKNGICQRIFGEKVLGLSGGSVSDMLSRPKPWSKLTQKGREPFIRMQLWLNG [Q35G] | -0.003 ± 0.059 |
| QEVDTIELTRQVKEKLAKNGICQRIFGEKVLGLSQGSHSDMLSRPKPWSKLTQKGREPFIRMQLWLNG [V38H] | -0.308 ± 0.11 |

| Variant | abundance fitness |
| --- | --- |
| QEVDTIELTRQVKEKLAKNGICQRIFGQKVLGLSQGSVSDMLSRPKPWSKLTQKGREPFIRMQLWLNG [E28Q] | -0.127 ± 0.083 |
| QEVDTIELTRQVKEKLAKNGICQRIFGFKVLGLSQGSVSDMLSRPKPWSKLTQKGREPFIRMQLWLNG [E28F] | -0.195 ± 0.091 |
| QEVDTIELTRQVKEKLAKNGICQRIFGPKVLGLSQGSVSDMLSRPKPWSKLTQKGREPFIRMQLWLNG [E28P] | -0.145 ± 0.069 |
| QEVDTVELTRQVKEKLAKNGICQRIFGEKVLGLSQGSVSDMLSRPKPWSKLTQKGREPFIRMQLWLNG [I6V] | -0.046 ± 0.061 |
| QEVDTIELTRQVKEKLAKNGICWRIFGEKVLGLSQGSVSDMLSRPKPWSKLTQKGREPFIRMQLWLNG [Q23W] | -0.044 ± 0.076 |
| QEVDTIELTRQVKEKLAKNGICPRIFGEKVLGLSQGSVSDMLSRPKPWSKLTQKGREPFIRMQLWLNG [Q23P] | -0.044 ± 0.07 |
| QEVDTIEGTRQVKEKLAKNGICQRIFGEKVLGLSQGSVSDMLSRPKPWSKLTQKGREPFIRMQLWLNG [L8G] | 0.039 ± 0.081 |
| QEVDTIELTRQVKEKLAKNGICQRIFGEKVLGLSQGSVSDMLKRPKPWSKLTQKGREPFIRMQLWLNG [S43K] | -0.028 ± 0.088 |
| QEVDTIELTRQVKEKLAKNGICQRIFGEKVLGLSQGSVSDMLSRPKPWSKLTQKGREPFIRMQPWLNG [L64P] | -0.562 ± 0.074 |
| QEVDTIELTRQVKEKLAKNGICQRIFGEKVLGLSQGSVSDMLSRPKPWSKLTQKGREPFIRMQRWLNG [L64R] | 0.103 ± 0.055 |
| QEVDTIELTRQVKEKLAKNGICQRIFGEKVLGLSQGSVSDMLSRPKPWSKLTQKGREPFDRMQLWLNG [I60D] | -0.29 ± 0.11 |
| QEVDTIELTRQVKEKLAKNGICQRIFGEKVLGLSQGSVSDMLSRPKPWSKLTQKGREPFYRMQLWLNG [I60Y] | 0.004 ± 0.093 |
| QEVDTIELTRQVKEKLAKNGICQRIFGEEVLGLSQGSVSDMLSRPKPWSKLTQKGREPFIRMQLWLNG [K29E] | 0.039 ± 0.064 |
| QEVDTIELTRQVKEKLAKNGICQRIFGEPVLGLSQGSVSDMLSRPKPWSKLTQKGREPFIRMQLWLNG [K29P] | -0.431 ± 0.071 |
| QEVDTIELTRQVKEKLAKNGICQRIFGEKVLGLTQGSVSDMLSRPKPWSKLTQKGREPFIRMQLWLNG [S34T] | -0.196 ± 0.12 |
| QEVDTIELTRQVKEKNAKNGICQRIFGEKVLGLSQGSVSDMLSRPKPWSKLTQKGREPFIRMQLWLNG [L16N] | -0.217 ± 0.15 |
| QEVDTIELTRQVKEKLAKNGICQRIFGEKVLGLSQGSVSDDLSRPKPWSKLTQKGREPFIRMQLWLNG [M41D] | -0.194 ± 0.1 |
| QEVDTIELTRQVKEKLAKNGICQRIFGEKVLGLSQGSVSDNLSRPKPWSKLTQKGREPFIRMQLWLNG [M41N] | -0.275 ± 0.097 |
| QEVDTIELTRQVKEKLAKNGICQRIFGEKVLGLSQGSVSDHLSRPKPWSKLTQKGREPFIRMQLWLNG [M41H] | -0.291 ± 0.14 |
